In the nanobody polyreactivity screen of Harvey et al. (2022):

Test: yeast display, Sf9 membrane polyspecificity reagent, FACS + sequencing; frameworks hold sequencing errors
In short: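 In a synthetic yeast display library (Saccharomyces cerevisiae BJ5465), nanobody expression was induced with galactose for 36–48 hours. FACS gates were set low and high (top ~1%) using anti-HA fluorescence for expression and streptavidin fluorescence for binding of the Sf9 membrane reagent. Each polyreactivity label is drawn from the gate of origin.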

Sequence | polyreactivity (PSR sort gate)
QVQLVESGGGLVQAGGSLRLSCAASGRTYGYNAMGWYRQAPGKERELVAAISRSGDSTYYADSVKGRFTISRDNAKNTVYLQMNSLKPEDTAVYYCATRYVTTGYDYWGQGTQVTVSS | low polyreactivity
QVQLVESGGGLVQAGGSLRLSCAASGSTLDPNVMGWYRQAPGKEREWVAAITTGGSTYYADSVKGRFTFSRDNAKNTVYLQLYSLKPEDTAFYYCNKDIGWLAHSRIWLWYDYWGQGTQVTVAS | low polyreactivity
QVQLVESGGGLVQAGGSLRLSCAASGNTFYAYAMGWYRQAPGKERELVAAIARGGNTYYADSVKGRFTISRDNAKNTVYLQMNSLKPEDTAVYYCNAYYPIRSSPYGYYYWGQGTQVTVSS | high polyreactivity
QVQLVESGGGLVQAGGSLRLSCAASGRILGNNVMGWYRQAPGKERELVAAITSSGGRTYYADSVKGRFTISRDNAKNTVYLQMNSLKPEDTAVYYCAAERRYYGKFNYWGQGTQVTVSS | high polyreactivity
QVQLVESGGGLVQAGGSLRLSCAASGSTFRRYAMGWYRQAPGKERELVASISWSGGSTSYADSVKGRFTISRDTAKNTVYLQMNSLKPEDTAVYYCAAVRYYWGEYYARYAYEYWGQGTQVTVSS | high polyreactivity
QFHLVESGGGLVQAGGSLRLSCAASGSIFNEYAMGWYRQAPGKERELVAAITNISGRKYYADSVKGRFTISRDNAKNTVYLQMNSLKPEDTAVYYCNARRTYTRPYIHSVYNYYYWGQGTEVTVSS | high polyreactivity
QVQLVESGGGLVQAGGSLRLSCAASGSIYTNAMGWYRQAPGKERELVAAISWSGGRTYYADSVKGRFTISRDNAKNTVYLQMNSLKPEDTAVYYCAADYYYSQVAYDYWGQGTQVTVSS | high polyreactivity
QVQLVESGGGLVQAGGSLRLSCAASGSTFSIYAMGWYRQAPGKERELVADITANGGSTYYADSVKGRFTISRDNAKNTVYLPMNSLKPEDTAVYYCAADAKSFDAVHYDYWGQGTHVTVSS | low polyreactivity
QVQLVESGGGLVQAGGSLRLSCAASGFIFPTYAMGWYRQAPGKEREFVASITRRGGSTYYADSVKGRFTISRDNAKNTVYLQMNSLKPEDTAVYYCAAGYYGFRGGGSDYWGQGTQVTVSS | high polyreactivity
QVQLVESGGGLVQAGGSLRLSCAASGRTFADYGMGWYRQAPGKERELVAAITSSGGSTYYADSVKGRFTISRDNAKNTVYLQMNSLKPEDTAVYYCAAQQSPSVDYWGQGTQVTVTS | low polyreactivity
QVRLVESGGGLVQAGGSLRLSCAASGSIFSPYAMGWYRQAPGKERELVAALSYGVGNTYYADSVKGRFTISRDNAKNTVYLQMNSLKPEDTAVYYCAAEEYDYVYPHYFTKGYYWGQGTQVTVSS | high polyreactivity
QVQLVESGGGLVQAGGSLRLSCAASGSTFDGYAMGWYRQAPGKERELVAAISASGGSTYYADSVKGRFTISRDNAKNTVYLQMNSLKPEDTAVYYCAAQVRYLCYRYDYWGQGSQVTVSS | high polyreactivity
QVQLVESGGGVVQAGGSLRLSCAASGYIFFANAMGWYRQAPGKERELVAAISSDGRTYYADSVKGRFTISRDNANNTVYLQMNSLKPEDTAVYYSADYFSGLTYGYYVAGYDYWGQGTQVTVSS | low polyreactivity
QVQLVESGGGLVQAGGSLRLSCAASGSIFYQYAMGWYRLAPGKERELVARITGSSGSTYYADSVKGRFTISRDNAKNTVYLQKNSLKPEDTAVYYCATDNYLIGDYWGQGTQVTVSS | high polyreactivity
QVQLVESGGGLVQAGGSLRLSCAASGSIFTFYAMGWYRQAPGKERELVAAISYRGGSTYYADSVKGRFTISRDNAKNTVYLQMNSLKPEDTAVYYCAAARFPVFIQGYRMEYWGQGTQVTVSS | low polyreactivity
QVQLVESGGGLVQAGGSLRLSCAASGFTFWRNTMGCSRQAPGKETEFVAAIDWSGGSTTYAVSVKGRFTFSRDNAKNSVYLQMNSLKPEDTAVYYCAAAERRRHYWWGQESDYWGQGTQVTVSS | low polyreactivity
QVQLVESGGGLVQAGGSLRLSCAASGSTNYPNAMGWYRQAPGKESELVARISRNGGSTYADSVKGRFTISRDNAKNTVYFQMNSLKPEDTEVYYCARSYASFSWLRTKEPYEYWGQGTQVTVSS | low polyreactivity
QVQLVESGGGLVQAGGSLRLSCAASGRTLSYNTMGWYRQAPGKEREFVAANTWSGGSTNYADSVKGRFTISRDNAKNTVYLQMNSLKPEDTAVYYCNADYLTVSWSIPEHVTVRLMYYWGQGTQVTVSS | low polyreactivity
QVQLVESGGGLVQAGGSLRLSCAASGRIFDQYALGWYRQAPRKESELVAFINRGGSTNYADSVKGRFTISRDNAKNTVYLQMNSLKPEDTEVYYCAADGDYYVESQTGHTYYYWGQGTQVTVSS | low polyreactivity
QVHLVESGGGLVQAGGSLRLSCAASGNIFTINAMGWYRQAPGKERDLVARITWGGGNTFYADSVKGRFTISRDNAKNTVYLEMNSLKPEDTAVYYCNAVGPYDYRYGKYDYWGQGTQVTVSS | low polyreactivity
QVQLVESGGGLVQAGGSLRLSCAASGSTFPRNAMGWYRQAAGKERELVAAISGRGVRTYYADSVKGRFTISRDNAKNTVYLQMNSLKPEDTAVHYCAAERQPYRTSSYNYWGQGTQVTVSS | high polyreactivity
QVQLVESGGGLVQAGGSLRLSCAASGSTFTYYAMGWSRQEPGIEREFVAAISRRGGSTYYADSVKGRFTISRDNAMNTVYLQMKSLKQEDTPVYYCNVVIYSYGINGRYDYWGQGTQDTVSS | high polyreactivity

Sequence | polyreactivity (PSR sort gate)
QVQLVESGGGLVQAGGRLRLSCADSGRTFYYYAMGWYRQAPGKERELVAAIRWRATSTFYADSVKGRFTISRDNAKNTVYLQMNSLKPEDTAVYYCATTGGYRLQAQKYYYWGQGTQVTLSS | high polyreactivity
QVQLVESGGGLVQAGGSLRLSCAASGSTFSFYAMGVYRQAPGKERELVAAISKSGGRTYYADSVKGRFTISRDNAKYTVYLQMNSLKPEDTAVYYCAARGNGQYVGKYYYWGQGTQVTVSS | high polyreactivity
QVQRVESGGGLVQAGGSLRLSCAASGLTFVYYAMGWYRQAPGKERELVAAISESGTSTYYADSVKGRFTISRDNAKNTVYLQMNSLKPEDTAVYYCAAKDSYYEMDYWGQGTQVTVSS | high polyreactivity
QVQLVESGGGLVQAGGSLPLSCAASGSIFQLNAMGWYRQAPGKERELVGSIRDGGSTSYADSVKGRFTISRDNAKNTVYLQMNSLKPADTAVYYCADLKLYIYDYWGQGTQVTVSS | high polyreactivity
QVQLVESCGGIVQAGGSLRLRCAASGFIFEYYAMVWYRQAPGKERELVAAINWGGGRTRYADSVKGRFTISPYNAKNTVYLQMNSLKPEDTAVYYCAARYGYRYDSWGQGTQVTVSS | high polyreactivity
QVQLVESGGGLVQAGGSLRLSCAASGFIFVFYAMGWYIQAPGKERELVAAITWSGGGTYYADSVKGRFTISRDNAKNTVYLQMNSLKPEDTAVYYCNTDASPYLFDYWGQGTQVTVSS | low polyreactivity
QVQLGESGGGLVQSGGSLRLSCAASGYIFNHNAMGWYRQAPGKEWELVAGISIGGSTYYADSVKGRFTISRDNAKNTVYLQMNRLIPEDTAVYYCNTQPPLIYRGVKSDYSGQGTQVTVSS | low polyreactivity
QVQLVSSGGGLVLAGGSLRLSCAASGRTIQDNAMGWYTQAPGKERELVAAISWRGGSTNYADSVKGRFTISRDNAKNTVYLQMNSLKPEDTAVYYCNRDPRKYGKLDYWGQGTQVTVSS | low polyreactivity
QVQLGESGGVLVQAGGSLRLSCSASGSTFYSNAMGWYRQAPVKEREFVAAITGSGGSTYYADSVKGRFTISRDNAQNTVYLQMNSLKPEVTAVYYCAAGTRIYNSWIRFDYWGQGTQVTVSS | high polyreactivity
QVQLVESGGGLGHAGGSLRLSCAASGRIYGRNAMGWNRKAQGKERELVAAINSGVSTYYADSVKGRFTISRDNAKNTFYLQMNSLKPEDTAVYYCAKAPQRRYYDFDYWGQGTQVTVSS | low polyreactivity
QVQLVESVGGLVQAGGSLRLSSAASGRTFRYYTMVWYTQAPGKEREFVAAISSTGGTYYADSVKGRFTISRDNAKNTVYLQMNSLKPEDTAVYYCAATFIQVVVNVQMYDYDYWGQGTQVTVSS | low polyreactivity
QVQLVESGGGLVQAGGSLRLSCAASGRTFLQYAMGWYRQAPRQERDLFATISFSGGSTYYADSVKGRITISRDNAKNTVYLLMNSLKPEDTAVYDCAKSQYRGRVYTGYDYWGQGTQVTVSA | low polyreactivity
QVQLVESGGGLVQARGSLRLSCAASGLTVGYNAMGWYRQARVKEWELVGAISSNGGRTYYADSVKGRFTISRDNAKNTVYLQMNSLKPEDTAVYYCNARYTGSSLYYWGQGTQVTVSS | high polyreactivity
QVQLVESGGGLVQAGGSLRLSCAASGRIGYYAMGWYRQAPGKERELVATISRGGSTKYADSVKGRFTISRDNAKNTVYLQMNSLKPEDTAVYYCAAARAPRYDYWGQGTQVTVSS | high polyreactivity
QVQLVESGGGLVQAGGSLRLSCAASGFTFRKYAMGWYRQAPGKERELVADISGGTGSTYYADSVKGRFTISRDNAKNTDYLHMNSLKPEDTAVYYCNAEGWYYLTEYGYWGQGTQLTVSS | low polyreactivity
QVQLLESGGGLVQAGGSLRLSCAASGSIFLFYDMGLYRHAPGKERELVATITSGTNTYADSVKGRFTISRDNAKNTGYLQMNSLKPEDTAVYSCAAGFSTASQLDYWGQVTQVTVSS | low polyreactivity
QVQLVESGGGLVQAGGSLRLSSAASGNIMDVYAMGWYRQAPGKERELVAAISGTDGSTYYADSVKGRFTISRDNAKNTVYLQMNSLKPEDTAVYYCAAEYVYFWWGENYWGQGTQVTVSS | high polyreactivity
QVQLVESGGGLVQAGGSLRLSCAASGIIFARNTMGWYRQAPGKERELVAAITSSGGNTYYADSVKGRFTISRDNAKNTVYLQKNSLKPEDTAVYYCAAYSRTLYPDRYYWGQGTQVTVSS | high polyreactivity
QVQLVESGGGLVQAGGSLRLSCAASGFIFYRYAMGWYRQAPGKERELVAAINWSGGGTYYADSVKGRFTISRDNAKNTVYLQMNSLKPEDTAVYYCAAGRSFRGSYWYEYWGQGTQVTVSS | high polyreactivity
QVQLVESGGGLVQAGGSLRLSCAASGIIFEGYAMGWYRQAPGKERELVAGITIGDITYYADSVKGRFTISRDNAKNTVYLQMNSLKPEDTAVYYCAADSYYYQTAYDSWGQGTQVTVSS | low polyreactivity
QVQLVESGGGLVHEGRSLRLSCAASGSKYSYDAMGWYRQAPGTERELVPTISWRGRTYYADSVKGRFTISRDNAKNTVYLKMISLKPEDTAVYYCNTKSLYGRSRGYPYDYWGQGTQVTVSS | high polyreactivity
